How the values were obtained:
[1] = molecular target: T1, CD73 on the surface of A375 cells (UniProt P21589 27-549, limits assumed); assay: flow cytometry on A375 cells, AF633 anti-human Fc detection
T1 construct: whole, on cells; also called cell surface CD73
T1 sequence (looked up): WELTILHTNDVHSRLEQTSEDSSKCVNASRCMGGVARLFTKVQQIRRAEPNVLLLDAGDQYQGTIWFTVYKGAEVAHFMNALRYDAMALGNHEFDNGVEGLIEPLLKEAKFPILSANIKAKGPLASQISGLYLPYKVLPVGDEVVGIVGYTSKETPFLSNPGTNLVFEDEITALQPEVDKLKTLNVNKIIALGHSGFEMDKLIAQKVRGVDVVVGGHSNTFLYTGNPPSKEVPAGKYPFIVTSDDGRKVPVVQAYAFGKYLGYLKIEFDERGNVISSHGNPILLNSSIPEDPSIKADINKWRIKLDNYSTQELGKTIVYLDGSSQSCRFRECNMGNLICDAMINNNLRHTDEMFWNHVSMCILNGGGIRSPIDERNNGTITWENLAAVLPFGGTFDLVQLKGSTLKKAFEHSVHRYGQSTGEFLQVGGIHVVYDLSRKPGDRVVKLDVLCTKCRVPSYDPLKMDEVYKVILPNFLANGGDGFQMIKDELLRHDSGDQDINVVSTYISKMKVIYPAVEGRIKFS
Procedure: A375 cells that constitutively expressed CD73 on the surface were used in this example. 1×10⁵ A375 cells/well were suspended in FACS buffer. Antibodies diluted from 10 nM by 2-fold, 100 μl into each well, 4° C. for 30 min. The samples were washed with FACS buffer for 1×. AF633-anti hu Fc was added for binding for 30 min at 4° C., and washed with FACS buffer for 1×.

[2] = molecular target: T2, human CD73 protein (soluble) (human, UniProt P21589 27-549, limits assumed); assay: ELISA, human CD73 coated on the plate, anti-human Fc HRP detection
T2 construct: its species is not restated there; also called soluble CD73; 5'-nucleotidase
T2 sequence (looked up): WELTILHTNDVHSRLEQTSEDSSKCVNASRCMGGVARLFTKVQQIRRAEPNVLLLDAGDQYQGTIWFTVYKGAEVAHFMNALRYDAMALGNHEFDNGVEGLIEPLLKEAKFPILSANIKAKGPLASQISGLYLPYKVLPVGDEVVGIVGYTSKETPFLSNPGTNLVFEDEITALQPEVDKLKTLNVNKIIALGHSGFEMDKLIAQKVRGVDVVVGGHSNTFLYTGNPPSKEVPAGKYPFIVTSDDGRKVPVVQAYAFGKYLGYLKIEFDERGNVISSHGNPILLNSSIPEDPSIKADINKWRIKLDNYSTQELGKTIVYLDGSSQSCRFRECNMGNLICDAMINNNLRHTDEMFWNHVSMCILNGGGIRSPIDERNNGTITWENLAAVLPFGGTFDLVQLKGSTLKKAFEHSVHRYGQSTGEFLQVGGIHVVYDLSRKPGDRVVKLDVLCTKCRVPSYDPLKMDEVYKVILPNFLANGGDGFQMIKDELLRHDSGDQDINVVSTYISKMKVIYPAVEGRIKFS
Procedure: Plated were coated with 100 μl of 1 μg/ml human CD73 protein overnight. The samples were blocked with 1% BSA in PBST for 1 hr, washed with PBST 3×. […] Binding with anti-hu Fc HRP was at 1:10000 in PBST, RT for 30 min, wash with PBST 3×. 100 μl of TMB and 100 μl of HCl were then added.

[3] = molecular target: T3, human PD-L1 protein (soluble) (human, UniProt Q9NZQ7 19-238, limits assumed); assay: ELISA, human PD-L1 coated on the plate, anti-human Fc HRP detection
T3 construct: also called soluble PD-L1
T3 sequence (Q9NZQ7 19-238 limits assumed): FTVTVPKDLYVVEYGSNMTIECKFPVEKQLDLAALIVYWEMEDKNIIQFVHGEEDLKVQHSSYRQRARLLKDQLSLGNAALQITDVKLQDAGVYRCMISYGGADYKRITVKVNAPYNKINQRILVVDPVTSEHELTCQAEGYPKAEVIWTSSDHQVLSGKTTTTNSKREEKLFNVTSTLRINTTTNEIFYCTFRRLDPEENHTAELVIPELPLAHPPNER

[4] = molecular target: T4, human PD-L1 on PD-L1 positive Raji cells (human, UniProt Q9NZQ7 19-290); assay: flow cytometry on PD-L1 positive Raji cells, AF633 anti-human Fc detection
T4 construct: whole, on cells; also called cell surface PD-L1; PD-L1+ cells
T4 sequence (Q9NZQ7 19-290): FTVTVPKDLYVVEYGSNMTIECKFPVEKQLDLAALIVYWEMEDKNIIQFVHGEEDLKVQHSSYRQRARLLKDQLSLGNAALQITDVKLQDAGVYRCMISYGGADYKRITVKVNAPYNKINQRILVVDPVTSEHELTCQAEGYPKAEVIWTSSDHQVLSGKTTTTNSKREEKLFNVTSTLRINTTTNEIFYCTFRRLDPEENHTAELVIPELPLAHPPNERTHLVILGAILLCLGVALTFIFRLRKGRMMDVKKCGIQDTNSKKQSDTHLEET

Binder	binding result [1]	binding result [2]	binding result [3]	binding result [4]
hu309 (monospecific anti-CD73 antibody with the 309 VH and 309 VL) (antibody, V domains shown, it was detected with anti-human Fc) VH: EVQLQESGPGLVKPSETLSLTCAVSGYSITSGYYWNWIRQPPGKKLEWMGYINYGGSNGYNPSLKSRITISRDTSKNQFSLKLSSVTAADTAVYYCARDYDAYYEALDDWGQGTTVTVSS VL: EIVLSQSPATLSLSPGERATLSCRASSRVNYMHWYQQKPGQSPRPWISATSNLASGVPARFSGSGSGTSYTLTISSLEPEDFAVYYCQQWSSNPPTFGGGTKVEIK	binds	binds		
H12(PDL1) (monospecific anti-PD-L1 antibody with the H12 VH and H12 VL) (antibody, V domains shown, it was detected with anti-human Fc; also called PD-L1 antibody H12) VH: EVQLVESGGGLVQPGGSLRLSCAASGFTFSSYDMSWVRQAPGKSLEWVATISDAGGYIYYRDSVKGRFTISRDNAKNSLYLQMNSLRDEDTAVYICARELPWRYALDYWGQGTTVTVSS VL: DIQMTQSPSSLSASVGDRVTITCKASQDVTPAVAWYQQKPGKAPKLLIYSTSSRYTGVPSRFSGSGSGTDFTFTISSLQPEDIATYYCQQHYTTPLTFGQGTKLEIK			binds	binds

Source: patent publication US20200347146A1 (I MAB BIOPHARMA US, published 2020)
